Measurements published in PMC9960064.
pKd: −log10 of the molar value.

Experiments:
Assay in all cases: ITC
[1] = molecular target: untagged β′-COP residues 1–604 (yeast (S. cerevisiae)) (UniProt P41811)
[2] = molecular target: C-terminal β′-COP propeller (residues 300–604), untagged (yeast (S. cerevisiae)) (UniProt P41811)
[3] = molecular target: β′-COP R13A/K15A/R59A (RKR mutant), residues 1–604, untagged (yeast (S. cerevisiae)) (UniProt P41811)

Chain of untagged β′-COP residues 1–604 (yeast (S. cerevisiae)) (P41811 1-604): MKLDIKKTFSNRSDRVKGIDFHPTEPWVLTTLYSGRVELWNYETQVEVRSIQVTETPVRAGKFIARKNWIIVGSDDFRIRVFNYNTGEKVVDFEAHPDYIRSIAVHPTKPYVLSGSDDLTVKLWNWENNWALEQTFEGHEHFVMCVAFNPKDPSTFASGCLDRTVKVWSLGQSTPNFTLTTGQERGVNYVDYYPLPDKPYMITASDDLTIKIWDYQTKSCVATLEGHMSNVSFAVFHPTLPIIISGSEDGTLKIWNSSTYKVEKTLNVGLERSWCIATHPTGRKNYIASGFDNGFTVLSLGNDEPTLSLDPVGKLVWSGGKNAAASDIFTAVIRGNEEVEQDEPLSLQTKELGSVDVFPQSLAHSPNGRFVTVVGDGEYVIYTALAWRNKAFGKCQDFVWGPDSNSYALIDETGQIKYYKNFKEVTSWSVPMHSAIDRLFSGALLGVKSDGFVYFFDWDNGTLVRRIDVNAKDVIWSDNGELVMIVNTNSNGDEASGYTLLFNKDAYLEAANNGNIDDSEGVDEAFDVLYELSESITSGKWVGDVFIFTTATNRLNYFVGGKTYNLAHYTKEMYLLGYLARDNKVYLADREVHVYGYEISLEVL
Chain of C-terminal β′-COP propeller (residues 300–604), untagged (yeast (S. cerevisiae)) (P41811 300-604): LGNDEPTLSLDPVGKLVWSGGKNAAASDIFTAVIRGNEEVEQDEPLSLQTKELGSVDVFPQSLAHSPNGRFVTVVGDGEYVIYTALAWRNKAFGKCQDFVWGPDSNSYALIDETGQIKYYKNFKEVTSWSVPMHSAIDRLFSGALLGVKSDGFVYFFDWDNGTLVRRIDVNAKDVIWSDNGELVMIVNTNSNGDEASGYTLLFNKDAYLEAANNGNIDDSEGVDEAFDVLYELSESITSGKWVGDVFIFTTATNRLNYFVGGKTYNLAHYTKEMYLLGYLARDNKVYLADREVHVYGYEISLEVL
Chain of untagged Glo3 residues 230–290 (P38682 230-290): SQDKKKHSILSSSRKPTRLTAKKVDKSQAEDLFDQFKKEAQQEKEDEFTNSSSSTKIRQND
Chain of untagged Glo3 BoCCS fragment (residues 230–300) (P38682 230-300): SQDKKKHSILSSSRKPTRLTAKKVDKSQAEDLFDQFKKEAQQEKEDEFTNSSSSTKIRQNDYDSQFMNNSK

Glo3 fragment lacking N-terminal residues 230–240, untagged (domain or fragment)
pKd [1]: < 3.52

full BoCCS Glo3 fragment (residues 208–383), untagged (from UniProt P38682 208-383) (domain or fragment)
stoichiometry N [1]: 1

untagged Glo3 BoCCS fragment (residues 230–300) (from UniProt P38682 230-300) (domain or fragment)
pKd [2]: > 3.52

untagged Glo3 residues 230–290 (from UniProt P38682 230-290) (domain or fragment)
fold weaker binding than wild-type β′-COP [3]: 16 fold
